First the molecules themselves.
B2: RVFV glycoprotein Gn head domain (154–469 aa) (domain or fragment)
chain: EDPHLRNRPGKGHNYIDGMTQEDATCKPVTYAGACSSFDVLLEKGKFPLFQSYAHHRTLLEAVHDTIIAKADPPSCDLLSAHGNPCMKEKLVMKTHCPNDYQSAHHLNNDGKMASVKCPPKYELTEDCNFCRQMTGASLKKGSYPLQDLFCQSSEDDGSKLKTKMKGVCEVGVQALKKCDGQLSTAHEVVPFAVFKNSKKVYLDKLDLKTEENLLPDSFVCFEHKGQYKGTMDSGQTKRELKSFDISQCPKIGGHGSKKCTGDAAFCSAYECTAQYANAYCSHANGSGIVQIQVSGVWKKPLCVGYERVVVKRELS

Conditions in all cases: both partners purified
In assay [1] the target is B2. Put plainly: BLI; […]; 300 s association, 300 s dissociation; […], global 1:1 model; Octet RED96. For orientation: Biolayer interferometry detects binding as a change in optical thickness at a sensor tip.
Assay [2] concerns the target T1, LRP1 cluster IV (CL IV, 3332–3779 aa) (human, UniProt Q07954 3332-3779). The experiment in a line: BLI.
Assay [3] addresses T2, LRP1 cluster II (CL II, 786–1165 aa) (human, UniProt Q07954 786-1165).
T2 construct: not shown: FLAG or 6 × HIS (same vector as Gn)
T2 sequence: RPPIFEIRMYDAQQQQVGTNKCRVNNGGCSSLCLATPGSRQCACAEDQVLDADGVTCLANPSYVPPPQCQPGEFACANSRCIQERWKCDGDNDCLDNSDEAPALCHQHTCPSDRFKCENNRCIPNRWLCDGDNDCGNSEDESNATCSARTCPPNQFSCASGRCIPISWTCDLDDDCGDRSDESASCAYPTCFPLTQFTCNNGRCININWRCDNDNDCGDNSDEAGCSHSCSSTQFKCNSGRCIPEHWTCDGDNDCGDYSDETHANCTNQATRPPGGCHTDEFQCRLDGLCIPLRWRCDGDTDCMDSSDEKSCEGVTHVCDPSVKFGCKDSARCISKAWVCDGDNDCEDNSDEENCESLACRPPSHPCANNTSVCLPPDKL
Put plainly: BLI.

Assay [4] concerns the target T1, LRP1 cluster IV (CL IV, 3332–3779 aa). The experiment in a line: BLI; […]; 300 s association, 300 s dissociation; […], global 1:1 model; Octet RED96.
The target of assay [5] is T2, LRP1 cluster II (CL II, 786–1165 aa). Described as above.

T1 sequence (Q07954 3332-3779): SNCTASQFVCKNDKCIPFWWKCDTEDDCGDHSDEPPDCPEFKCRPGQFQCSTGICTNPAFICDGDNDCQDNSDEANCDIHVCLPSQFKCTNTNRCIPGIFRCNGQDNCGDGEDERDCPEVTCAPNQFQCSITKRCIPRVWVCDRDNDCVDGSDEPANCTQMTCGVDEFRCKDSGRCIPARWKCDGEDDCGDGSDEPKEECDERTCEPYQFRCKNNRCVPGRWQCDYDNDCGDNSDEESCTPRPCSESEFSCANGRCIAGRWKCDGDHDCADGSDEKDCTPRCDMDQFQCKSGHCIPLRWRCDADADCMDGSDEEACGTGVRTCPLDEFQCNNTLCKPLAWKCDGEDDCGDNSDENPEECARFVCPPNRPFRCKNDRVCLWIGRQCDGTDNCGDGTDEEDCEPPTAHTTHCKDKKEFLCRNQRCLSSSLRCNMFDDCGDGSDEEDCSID

B1: LRP1 CL IV-B, repeats A25–A28 (3492–3649 aa) (domain or fragment)
chain: not shown
As to B1, the Kd (in general, the equilibrium constant for the complex coming apart) in assay [1] stood at 36 nM.

For the molecule B2, the Kd in assay [2] is 120 nM; in assay [3] it was 220 nM; in assay [4], 56 nM; in assay [5] it was 89 nM.

B3: LRP1 CL IV-A, repeats A21–A24 (3332–3491 aa) (domain or fragment)
chain: not shown
B3: in assay [1], the Kd is 72 nM. In other words, the double-digit nanomolar range.

The record behind these values is paper PMC12839305 (Biomolecules, 2025).
